From patent publication US20220251202A1 (ASHER BIOTHERAPEUTICS, published 2022) come the findings set out here.

The test addresses T1, mouse CD8 (on mouse CD8+ T cells) (mouse, UniProt P01731 28-247; P10300 22-213).
T1 construct: whole, on cells
The test is described as follows: flow cytometry on mouse splenocytes, anti-hFc MFI. The procedure: Fresh splenocytes were incubated with the indicated antibodies for 2 hours at 4° C. The cells were then stained with antibodies against CD3, CD4, CD8 and anti-hFc. anti-hFc was used to measure the binding of CD8-IL2 fusion containing hFc. Cells were washed and analyzed by flow cytometry.
The binding affinity of anti-mouse CD8 antibodies was determined through flow cytometry analysis. […] The xCD8ab2.1 clone is derived from xCD8ab2 by introduction of mutations N95A (VH) and D92A (VK). After incubation with the anti-mouse CD8 antibody, the cells were then stained with antibodies against CD3, CD4, CD8 and anti-hFc (HP6017, Biolegend), the latter of which was used to measure the binding of CD8-IL2 fusion containing hFc. Stained cells were washed and analyzed by flow cytometry and mean fluorescence intensity (MFI) of staining with anti-hFc was used to denote binding.

B1: xmCD8ab2 (published clone YTS156.7.7) (antibody, V domains shown)
VH: EVKLQESGPSLVQPSQTLSLTCSVSGFSLISDSVHWVRQPPGKGLEWMGGIWADGSTDYNSALKSRLSISRDTSKSQGFLKMNSLQTDDTAIYFCTSNRESYYFDYWGQGTMVTVSS
VL: DIQMTQSPASLSASLGDKVTITCQASQNIDKYIAWYQQKPGKAPRQLIHYTSTLVSGTPSRFSGSGSGRDYSFSISSVESEDIASYYCLQYDTLYTFGAGTKLELK
notes: Carries a human Fc; also called xCD8ab2
In the case of B1, the binding result was “binds”.

B2: xmCD8ab2.1 (antibody, V domains shown)
VH: EVKLQESGPSLVQPSQTLSLTCSVSGFSLISDSVHWVRQPPGKGLEWMGGIWADGSTDYNSALKSRLSISRDTSKSQGFLKMNSLQTDDTAIYFCTSARESYYFDYWGQGTMVTVSS
VL: DIQMTQSPASLSASLGDKVTITCQASQNIDKYIAWYQQKPGKAPRQLIHYTSTLVSGTPSRFSGSGSGRDYSFSISSVESEDIASYYCLQYATLYTFGAGTKLELK
notes: Carries a human Fc; also called xCD8ab2.1
On to B2, for which the binding result is given as “binds”.
